# The supplement of paper PMC10567573
# B1: DYRK1B (parent)
# chain: RFQDLVLRMLEYEPAARISPLGAL
# Variants of: B1
# Test: protein stability index of a GFP-peptide fusion (GPS, HEK-293T) (PSI 1-6); higher = more stable
# Conditions: c terminus: a fixed tail appended
# 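Further: lentivirally expressed fusions sorted by FACS into six bins by GFP to DsRed ratio, PSI derived from sequencing read proportions per bin multiplied by bin number.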
row,Variant,protein stability index
1,RFQDLVLRMNEYEPAARISPLGAL [L10N],1.64
2,RFQDLVLRMQEYEPAARISPLGAL [L10Q],1.6
3,RFQDLVLRMMEYEPAARISPLGAL [L10M],2.05
4,RFQDLVLRMGEYEPAARISPLGAL [L10G],1.66
5,RFQDLVLRMTEYEPAARISPLGAL [L10T],2.19
6,RFQDLVLRMIEYEPAARISPLGAL [L10I],1.96
7,RFQDLVLRMDEYEPAARISPLGAL [L10D],1.92
8,RFQDLVLRMHEYEPAARISPLGAL [L10H],1.17
9,RFQDLVLRMPEYEPAARISPLGAL [L10P],2.37
10,RFQDLVLRMEEYEPAARISPLGAL [L10E],1.27
11,RFQDLVLRMAEYEPAARISPLGAL [L10A],3.32
12,RFQDLVLRMLEYEPFARISPLGAL [A15F],1.95
13,RFQDLVLRMLEYEPKARISPLGAL [A15K],3.43
14,RFQDLVLRMLEYEPMARISPLGAL [A15M],2.57
15,RFQDLVLRMLEYEPQARISPLGAL [A15Q],2.04
16,RFQDLVLRMLEYEPPARISPLGAL [A15P],2.8
17,RFQDLVLRMLEYEPHARISPLGAL [A15H],5.14
18,RFQDLVLRMLVYEPAARISPLGAL [E11V],3.51
19,RFQDLVLRMLTYEPAARISPLGAL [E11T],3.67
20,RFQDLVLRMLRYEPAARISPLGAL [E11R],2.66
21,RFQDLVLRMLPYEPAARISPLGAL [E11P],3.04
22,RFQDLVLRMLLYEPAARISPLGAL [E11L],2.25
23,RFQDLVLRMLQYEPAARISPLGAL [E11Q],2.81
24,RFQDLVLRMLHYEPAARISPLGAL [E11H],2.96

row,Variant,protein stability index
1,RFQDLVLRMLAYEPAARISPLGAL [E11A],1.56
2,RFQDLVLRMLNYEPAARISPLGAL [E11N],2.21
3,RFQDLVLRMLYYEPAARISPLGAL [E11Y],3.21
4,RFQDLVLRMLMYEPAARISPLGAL [E11M],3.73
5,RFQDLVPRMLEYEPAARISPLGAL [L7P],2.25
6,RFQDLVNRMLEYEPAARISPLGAL [L7N],1.41
7,RFQDLVRRMLEYEPAARISPLGAL [L7R],1.58
8,RFQDLVERMLEYEPAARISPLGAL [L7E],1.8
9,RFQDLVGRMLEYEPAARISPLGAL [L7G],1.18
10,RFQDLVFRMLEYEPAARISPLGAL [L7F],2.9
11,RFQDLVHRMLEYEPAARISPLGAL [L7H],1.03
12,RFQDLVMRMLEYEPAARISPLGAL [L7M],2.13
13,RFQDLVKRMLEYEPAARISPLGAL [L7K],1.51
14,RFQDLVQRMLEYEPAARISPLGAL [L7Q],1.69
15,RFQDLVSRMLEYEPAARISPLGAL [L7S],2.05
16,RFQDLVTRMLEYEPAARISPLGAL [L7T],2.3
17,RFQDLVYRMLEYEPAARISPLGAL [L7Y],1.38
18,RFQDLGLRMLEYEPAARISPLGAL [V6G],1.88
19,RFQDLALRMLEYEPAARISPLGAL [V6A],2.26
20,RFQDLYLRMLEYEPAARISPLGAL [V6Y],2.18
21,RFQDLLLRMLEYEPAARISPLGAL [V6L],1.77
22,RFQDLSLRMLEYEPAARISPLGAL [V6S],1.91
23,RFQDLDLRMLEYEPAARISPLGAL [V6D],2.24
24,RFQDLHLRMLEYEPAARISPLGAL [V6H],2.01

row,Variant,protein stability index
1,RFQDLNLRMLEYEPAARISPLGAL [V6N],2.78
2,RFQDLRLRMLEYEPAARISPLGAL [V6R],2
3,RFQDLKLRMLEYEPAARISPLGAL [V6K],1.51
4,RFQDLWLRMLEYEPAARISPLGAL [V6W],1.03
5,RFQDLPLRMLEYEPAARISPLGAL [V6P],2.58
6,RFQDLTLRMLEYEPAARISPLGAL [V6T],2.07
7,RFQDLQLRMLEYEPAARISPLGAL [V6Q],2.12
8,RFQDLILRMLEYEPAARISPLGAL [V6I],2.23
9,RFQDLVLPMLEYEPAARISPLGAL [R8P],2.23
10,RFQDLVLHMLEYEPAARISPLGAL [R8H],1.85
11,RFQDLVLLMLEYEPAARISPLGAL [R8L],1.89
12,RFQDLVLGMLEYEPAARISPLGAL [R8G],1.33
13,RFQDLVLAMLEYEPAARISPLGAL [R8A],4.01
14,RFQDLVLDMLEYEPAARISPLGAL [R8D],1.31
15,RFQDLVLIMLEYEPAARISPLGAL [R8I],2.21
16,RFQDLVLMMLEYEPAARISPLGAL [R8M],3.14
17,RFQDLVLCMLEYEPAARISPLGAL [R8C],2.22
18,RFQDLVLEMLEYEPAARISPLGAL [R8E],2.06
19,RFQDLVLRDLEYEPAARISPLGAL [M9D],3.29
20,RFQDLVLRHLEYEPAARISPLGAL [M9H],2.78
21,RFQDLVLRELEYEPAARISPLGAL [M9E],1.98
22,RFQDLVLRTLEYEPAARISPLGAL [M9T],1.83
23,RFQDLVLRGLEYEPAARISPLGAL [M9G],1.33
24,RFQDLVLRLLEYEPAARISPLGAL [M9L],2.7

row,Variant,protein stability index
1,RFQDLVLRRLEYEPAARISPLGAL [M9R],1.86
2,RFQDLVLRNLEYEPAARISPLGAL [M9N],2.33
3,RFQDLVLRSLEYEPAARISPLGAL [M9S],1.09
4,RFQDLVLRFLEYEPAARISPLGAL [M9F],2.77
5,RFQDLVLRKLEYEPAARISPLGAL [M9K],1.53
6,RFPDLVLRMLEYEPAARISPLGAL [Q3P],2.05
7,RFIDLVLRMLEYEPAARISPLGAL [Q3I],2.91
8,RFHDLVLRMLEYEPAARISPLGAL [Q3H],1.95
9,RFDDLVLRMLEYEPAARISPLGAL [Q3D],1.82
10,RFNDLVLRMLEYEPAARISPLGAL [Q3N],2.28
11,RFTDLVLRMLEYEPAARISPLGAL [Q3T],3.41
12,RFVDLVLRMLEYEPAARISPLGAL [Q3V],4.49
13,RFRDLVLRMLEYEPAARISPLGAL [Q3R],1.19
14,RFYDLVLRMLEYEPAARISPLGAL [Q3Y],3.44
15,RFKDLVLRMLEYEPAARISPLGAL [Q3K],2.03
16,RFSDLVLRMLEYEPAARISPLGAL [Q3S],2.84
17,RFEDLVLRMLEYEPAARISPLGAL [Q3E],2.19
18,SFQDLVLRMLEYEPAARISPLGAL [R1S],4.75
19,PFQDLVLRMLEYEPAARISPLGAL [R1P],3.11
20,KFQDLVLRMLEYEPAARISPLGAL [R1K],2.19
21,TFQDLVLRMLEYEPAARISPLGAL [R1T],2.57
22,MFQDLVLRMLEYEPAARISPLGAL [R1M],3.36
